# How the values were obtained:
# Assay in all cases: purified protein
# Type in all cases: biochemical, Escherichia coli
# purified protein [1] = substrate: Nc1nc2c(ncn2[C@H]2C[C@H](O)[C@@H](COP(=O)(O)O)O2)c(=O)[nH]1; details: 2 mM ATP, 10 mM Mg acetate, 50 mM K acetate, 20 mM Tris-acetate, 37°C, three protein batches (N = 3)
# purified protein [2] = substrate: Cc1cn([C@H]2C[C@H](O)[C@@H](COP(=O)(O)O)O2)c(=O)[nH]c1=O; details: 2 mM ATP, 10 mM Mg acetate, 50 mM K acetate, 20 mM Tris-acetate, 37°C, three protein batches (N = 3)
# purified protein [3] = substrate: Cc1cn([C@H]2C[C@H](O)[C@@H](COP(=O)(O)OP(=O)(O)O)O2)c(=O)[nH]c1=O; details: 2 mM ATP, 10 mM Mg acetate, 50 mM K acetate, 20 mM Tris-acetate, 37°C
# purified protein [4] = substrate: Nc1ccn([C@H]2C[C@H](O)[C@@H](COP(=O)(O)OP(=O)(O)O)O2)c(=O)n1; details: 2 mM ATP, 10 mM Mg acetate, 50 mM K acetate, 20 mM Tris-acetate, 37°C
# purified protein [5] = substrate: Nc1nc2c(ncn2[C@H]2C[C@H](O)[C@@H](CO[P@](=O)(O)OP(=O)(O)O)O2)c(=O)[nH]1; details: 2 mM ATP, 10 mM Mg acetate, 50 mM K acetate, 20 mM Tris-acetate, 37°C
# purified protein [6] = substrate: Nc1ncnc2c1ncn2[C@H]1C[C@H](O)[C@@H](COP(=O)(O)OP(=O)(O)O)O1; details: 2 mM ATP, 10 mM Mg acetate, 50 mM K acetate, 20 mM Tris-acetate, 37°C
# purified protein [7] = substrate: Nc1ccn([C@H]2C[C@H](O)[C@@H](COP(=O)(O)O)O2)c(=O)n1; details: 2 mM ATP, 10 mM Mg acetate, 50 mM K acetate, 20 mM Tris-acetate, 37°C, three protein batches (N = 3)
protein,measurement,setting,value
"guanylate kinase (gmk) (Escherichia coli K-12) (protein, C-terminal 6x His tag (pET24a), kept; E. coli BL21(DE3) host; Ni-NTA) MAQGTLYIVSAPSGAGKSSLIQALLKTQPLYDTQVSVSHTTRQPRPGEVHGEHYFFVNHDEFKEMISRDAFLEHAEVFGNYYGTSREAIEQVLATGVDVFLDIDWQGAQQIRQKMPHARSIFILPPSKIELDRRLRGRGQDSEEVIAKRMAQAVAEMSHYAEYDYLIVNDDFDTALTDLKTIIRAERLRMSRQKQRHDALISKLLAD",Km,purified protein [1],848 ± 402 µM
same,Vmax,purified protein [1],76.2 µmol/min/mg
"thymidylate kinase (tmk) (Escherichia coli K-12) (protein, C-terminal 6x His tag (pET24a), kept; E. coli BL21(DE3) host; Ni-NTA) MRSKYIVIEGLEGAGKTTARNVVVETLEQLGIRDMVFTREPGGTQLAEKLRSLVLDIKSVGDEVITDKAEVLMFYAARVQLVETVIKPALANGTWVIGDRHDLSTQAYQGGGRGIDQHMLATLRDAVLGDFRPDLTLYLDVTPEVGLKRARARGELDRIEQESFDFFNRTRARYLELAAQDKSIHTIDATQPLEAVMDAIRTTVTHWVKELDA",Km,purified protein [2],150 ± 22 µM
same,Vmax,purified protein [2],39.4 µmol/min/mg
"nucleotide disphosphate kinase (ndk; NDK) (Escherichia coli K-12) (protein, C-terminal 6x His tag (pET24a), kept; E. coli BL21(DE3) host; Ni-NTA) AIERTFSIIKPNAVAKNVIGNIFARFEAAGFKIVGTKMLHLTVEQARGFYAEHDGKPFFDGLVEFMTSGPIVVSVLEGENAVQRHRDLLGATNPANALAGTLRADYADSLTENGTHGSDSVESAAREIAYFFGEGEVCPRTR",Km,purified protein [3],2398 ± 1036 µM
same,Km,purified protein [4],543 ± 105 µM
same,Km,purified protein [5],431 ± 89 µM
same,Km,purified protein [6],1185 ± 87 µM
"cytidylate kinase (cmk) (Escherichia coli K-12) (protein, C-terminal 6x His tag (pET24a), kept; E. coli BL21(DE3) host; Ni-NTA) MTAIAPVITIDGPSGAGKGTLCKAMAEALQWHLLDSGAIYRVLALAALHHHVDVASEDALVPLASHLDVRFVSTNGNLEVILEGEDVSGEIRTQEVANAASQVAAFPRVREALLRRQRAFRELPGLIADGRDMGTVVFPDAPVKIFLDASSEERAHRRMLQLQEKGFSVNFERLLAEIKERDDRDRNRAVAPLVPAADALVLDSTTLSIEQVIEKALQYARQKLALA",Km,purified protein [7],314 ± 154 µM
same,Vmax,purified protein [7],69.3 µmol/min/mg

# From PMC10952841, “Biocatalytic synthesis of 2′‐deoxynucleotide 5′‐triphosphates from bacterial genomic DNA: Proof of principle” (Biotechnology and Bioengineering, 2023)
